Source: patent publication US20100098706A1 (LFB BIOTECHNOLOGIES, published 2010)

Assays:
[1] = target: T1, human CD16 receptor (FcgammaRIIIa) (human, UniProt P08637 17-254); assay: cell-based or functional assay
[2] = target: T1, human CD16 receptor (FcgammaRIIIa); assay: flow cytometry on NK cells; competition with 3G8-PE; antibody at 50 µg/ml; reference Rituxan®
Procedure: The binding to the CD16 receptor is evaluated by a murine anti-CD16 antibody (3G8) competition test.
The effector cells (NK cells) are purified by the negative depletion kit (NK Cell Isolation Kit, Myltenyi, Paris, France), starting with peripheral blood from healthy donors. Then, the NK cells are incubated with variable concentrations (0, 10 and 50 μg/ml) of antibodies to be evaluated and the anti-CD16 antibody (3G8) coupled to a fluorochrome (3G8-PE) at a fixed concentration.
After washing, the binding of the 3G8-PE to the CD16 receptor of the NK cells is evaluated by flow cytometry.

[3] = target: T2, human LDL (Low Density Lipoprotein) receptor (human, UniProt P01130 22-860); assay: binding to melanoma cell lines; method not described
T2 construct: whole, on cells; no recombinant LDL-R was tested; also called LDL-R; human LDL-R

[4] = target: T1, human CD16 receptor (FcgammaRIIIa); assay: cell-based or functional assay; remark: listed apart in the source

T1 sequence (P08637 17-254): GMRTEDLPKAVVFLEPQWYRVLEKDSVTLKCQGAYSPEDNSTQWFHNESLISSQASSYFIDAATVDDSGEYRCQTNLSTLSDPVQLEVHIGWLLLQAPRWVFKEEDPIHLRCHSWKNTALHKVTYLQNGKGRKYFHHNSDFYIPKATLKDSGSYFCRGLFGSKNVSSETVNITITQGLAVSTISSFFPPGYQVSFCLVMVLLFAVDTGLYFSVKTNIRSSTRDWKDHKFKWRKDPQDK
T2 sequence (P01130 22-860): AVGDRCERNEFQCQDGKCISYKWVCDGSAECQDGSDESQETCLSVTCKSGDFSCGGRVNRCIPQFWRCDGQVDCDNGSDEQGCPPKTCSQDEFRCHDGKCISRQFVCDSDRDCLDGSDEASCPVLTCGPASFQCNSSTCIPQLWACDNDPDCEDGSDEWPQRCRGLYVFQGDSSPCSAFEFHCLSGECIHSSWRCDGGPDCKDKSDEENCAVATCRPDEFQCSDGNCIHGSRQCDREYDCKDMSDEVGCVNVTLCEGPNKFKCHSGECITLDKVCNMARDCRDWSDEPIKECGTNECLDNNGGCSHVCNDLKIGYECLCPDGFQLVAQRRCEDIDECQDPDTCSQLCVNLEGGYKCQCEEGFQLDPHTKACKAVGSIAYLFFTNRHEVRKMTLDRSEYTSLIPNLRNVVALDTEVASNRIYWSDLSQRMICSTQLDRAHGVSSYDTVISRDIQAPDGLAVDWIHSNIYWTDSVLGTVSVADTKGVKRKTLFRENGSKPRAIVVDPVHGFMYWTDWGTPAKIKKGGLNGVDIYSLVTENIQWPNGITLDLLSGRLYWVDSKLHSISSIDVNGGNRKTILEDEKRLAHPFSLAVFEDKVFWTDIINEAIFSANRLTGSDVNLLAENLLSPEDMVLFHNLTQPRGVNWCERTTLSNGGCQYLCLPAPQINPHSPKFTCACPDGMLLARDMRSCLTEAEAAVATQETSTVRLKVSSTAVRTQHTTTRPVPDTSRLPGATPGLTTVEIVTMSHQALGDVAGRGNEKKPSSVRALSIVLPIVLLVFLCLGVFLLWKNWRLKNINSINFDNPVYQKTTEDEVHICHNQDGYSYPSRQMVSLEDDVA

- ADCC EC50, GUY 17.2 target cells, NK effector cells [1]: 0.45 µg/mL
- fold binding against Rituxan® [2]: ~3 fold
- binding result [3]: binds
- ADCC EC50, HT-144 target cells, NK effector cells [4]: 0.45 µg/mL
B1: anti-LDL-R chimeric antibody EMAB604 (antibody, human IgG1, kappa)
heavy: not shown
light: DVLMTQTPLSLPVSLGDQASISCRSSQSILHSSGIAYLEWYLQKPGQSPKLLIYKVSNRFSGVPDRFSGSGSGTDFTLKISRVEAEDLGVYYCFQGSHVPWTFGGGTKLEIKRTVAAPSVFIFPPSDEQLKSGTASVVCLLNNFYPREAKVQWKVDNALQSGNSQESVTEQDSKDSTYSLSSTLTLSKADYEKHKVYACEVTHQGLSSPVTKSFNRGEC
notes: The cloned V fragments contain the natural signal peptide of C7; also called anti-LDL-R (EMAB604); chimeric antibody C7
